Earlier results in paper PMC3721222.
Like-named read-outs stand apart in the source and are kept apart here. Blank lines part the entries; values can stand above or below the substance they belong to.

Legend:
Trypsin (Bos taurus) [1] = molecular target: Trypsin (Bos taurus) (UniProt P00760)
[2] = molecular target: Neutrophil elastase (Homo sapiens) (UniProt P08246)
[3] = molecular target: Chymotrypsin (Bos taurus) (UniProt P00766)
[4] = molecular target: Pancreatic elastase (Sus scrofa) (UniProt P00772)
UniProt P00772, sequence (P00772 27-266): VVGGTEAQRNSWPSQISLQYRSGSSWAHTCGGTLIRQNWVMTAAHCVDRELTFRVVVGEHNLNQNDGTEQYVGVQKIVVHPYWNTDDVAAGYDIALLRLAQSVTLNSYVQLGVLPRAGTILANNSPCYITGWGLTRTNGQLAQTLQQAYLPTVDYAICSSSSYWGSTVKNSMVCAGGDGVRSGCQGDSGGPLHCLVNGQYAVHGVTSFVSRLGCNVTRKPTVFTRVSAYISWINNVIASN

[5] = molecular target: Proteinase K (Parengyodontium album) (UniProt P06873)
UniProt P06873, sequence (P06873 106-384): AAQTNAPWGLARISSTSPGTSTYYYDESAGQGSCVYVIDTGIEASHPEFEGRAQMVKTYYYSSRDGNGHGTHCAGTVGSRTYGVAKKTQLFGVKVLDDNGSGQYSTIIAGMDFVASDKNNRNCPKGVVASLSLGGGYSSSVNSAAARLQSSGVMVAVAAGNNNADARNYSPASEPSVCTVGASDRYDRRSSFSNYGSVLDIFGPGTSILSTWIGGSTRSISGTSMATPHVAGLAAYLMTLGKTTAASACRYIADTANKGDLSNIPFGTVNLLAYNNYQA

[6] = molecular target: Subtilisin A (Bacillus licheniformis) (UniProt P00780)
UniProt P00780, sequence (P00780 106-379): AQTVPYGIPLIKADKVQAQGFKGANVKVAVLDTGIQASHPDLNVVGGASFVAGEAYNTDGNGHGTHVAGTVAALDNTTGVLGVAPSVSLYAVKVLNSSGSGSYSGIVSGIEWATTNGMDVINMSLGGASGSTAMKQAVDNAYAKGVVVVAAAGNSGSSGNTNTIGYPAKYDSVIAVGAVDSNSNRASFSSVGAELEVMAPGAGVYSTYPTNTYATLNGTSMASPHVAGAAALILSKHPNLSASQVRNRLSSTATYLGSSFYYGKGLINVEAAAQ

Trypsin (Bos taurus) [7] = molecular target: Trypsin (Bos taurus) (UniProt P00760); remark: listed apart in the source
Plasmin (Homo sapiens) [8] = molecular target: Plasmin (Homo sapiens) (UniProt P00747)
UniProt P00747, sequence (P00747 581-810): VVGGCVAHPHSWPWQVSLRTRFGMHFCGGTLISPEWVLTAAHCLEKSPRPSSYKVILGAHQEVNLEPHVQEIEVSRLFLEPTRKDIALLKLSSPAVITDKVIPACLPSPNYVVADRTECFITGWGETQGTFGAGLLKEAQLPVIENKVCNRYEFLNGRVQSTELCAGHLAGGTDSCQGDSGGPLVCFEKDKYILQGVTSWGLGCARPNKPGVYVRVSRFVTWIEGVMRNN

Trypsin (Bos taurus) [9] = molecular target: Trypsin (Bos taurus) (UniProt P00760); remark: listed apart in the source
Thrombin (Homo sapiens) = Thrombin (Homo sapiens) (UniProt P00734)
[10] = molecular target: Chymotrypsin (Bos taurus) (UniProt P00766); remark: listed apart in the source
Trypsin (Bos taurus) [11] = molecular target: Trypsin (Bos taurus) (UniProt P00760); remark: listed apart in the source
Kv1.2 = Kv1.2 (UniProt P16389)
UniProt P16389, sequence (P16389 whole entry): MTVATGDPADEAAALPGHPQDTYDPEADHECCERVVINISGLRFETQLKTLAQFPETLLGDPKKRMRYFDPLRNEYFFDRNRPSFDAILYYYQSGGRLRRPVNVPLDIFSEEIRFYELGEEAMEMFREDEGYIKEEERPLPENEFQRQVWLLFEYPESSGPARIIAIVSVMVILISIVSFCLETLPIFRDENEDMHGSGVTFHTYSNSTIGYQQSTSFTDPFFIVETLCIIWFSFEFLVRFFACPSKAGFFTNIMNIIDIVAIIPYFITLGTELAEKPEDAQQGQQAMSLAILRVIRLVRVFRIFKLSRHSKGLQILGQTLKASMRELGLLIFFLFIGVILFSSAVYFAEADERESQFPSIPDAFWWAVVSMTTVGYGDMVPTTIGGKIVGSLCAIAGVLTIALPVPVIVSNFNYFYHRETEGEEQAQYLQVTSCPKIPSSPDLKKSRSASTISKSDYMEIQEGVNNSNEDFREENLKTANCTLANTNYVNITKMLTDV

Kv1.6 = Kv1.6 (UniProt P17658)
UniProt P17658, sequence (P17658 whole entry): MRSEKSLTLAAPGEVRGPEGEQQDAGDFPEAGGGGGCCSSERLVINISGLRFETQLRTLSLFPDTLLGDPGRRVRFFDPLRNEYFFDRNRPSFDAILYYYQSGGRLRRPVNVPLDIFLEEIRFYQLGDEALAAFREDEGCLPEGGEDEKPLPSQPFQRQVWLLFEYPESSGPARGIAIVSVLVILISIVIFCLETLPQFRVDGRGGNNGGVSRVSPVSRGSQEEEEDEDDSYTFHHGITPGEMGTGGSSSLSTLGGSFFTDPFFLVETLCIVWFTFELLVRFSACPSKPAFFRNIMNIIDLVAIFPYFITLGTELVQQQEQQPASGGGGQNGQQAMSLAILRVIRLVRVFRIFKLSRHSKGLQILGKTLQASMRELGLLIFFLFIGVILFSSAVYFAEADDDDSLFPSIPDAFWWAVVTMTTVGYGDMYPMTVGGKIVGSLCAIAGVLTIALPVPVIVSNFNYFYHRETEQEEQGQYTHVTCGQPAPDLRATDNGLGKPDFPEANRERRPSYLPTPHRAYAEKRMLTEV

Kv1.1 = Kv1.1 (UniProt Q09470)
UniProt Q09470, sequence (Q09470 whole entry): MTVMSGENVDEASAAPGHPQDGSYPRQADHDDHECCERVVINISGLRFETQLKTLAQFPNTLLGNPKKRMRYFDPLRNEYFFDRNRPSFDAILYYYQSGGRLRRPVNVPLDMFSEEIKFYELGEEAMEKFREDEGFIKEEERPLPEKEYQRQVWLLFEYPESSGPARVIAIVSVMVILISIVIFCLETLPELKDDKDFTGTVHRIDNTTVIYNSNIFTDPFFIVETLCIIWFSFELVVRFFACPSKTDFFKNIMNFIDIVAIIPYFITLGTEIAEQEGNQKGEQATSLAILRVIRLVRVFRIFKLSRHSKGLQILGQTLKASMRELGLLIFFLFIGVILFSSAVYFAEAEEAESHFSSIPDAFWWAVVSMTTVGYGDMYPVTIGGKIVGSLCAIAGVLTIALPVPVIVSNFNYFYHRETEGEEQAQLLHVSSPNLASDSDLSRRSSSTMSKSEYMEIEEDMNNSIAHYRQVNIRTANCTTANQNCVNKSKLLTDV

Trypsin (Bos taurus) [12] = molecular target: Trypsin (Bos taurus) (UniProt P00760); remark: listed apart in the source
Plasmin (Homo sapiens) [13] = molecular target: Plasmin (Homo sapiens) (UniProt P00747); remark: listed apart in the source
[14] = molecular target: Chymotrypsin (Bos taurus) (UniProt P00766); remark: listed apart in the source
Trypsin (Bos taurus) [15] = molecular target: Trypsin (Bos taurus) (UniProt P00760); remark: listed apart in the source
[16] = molecular target: Chymotrypsin (Bos taurus) (UniProt P00766); remark: listed apart in the source
[17] = molecular target: alpha-Factor XIIa (Homo sapiens) (UniProt P00748)
UniProt P00748, sequence (P00748 20-372, chain 1 of 2): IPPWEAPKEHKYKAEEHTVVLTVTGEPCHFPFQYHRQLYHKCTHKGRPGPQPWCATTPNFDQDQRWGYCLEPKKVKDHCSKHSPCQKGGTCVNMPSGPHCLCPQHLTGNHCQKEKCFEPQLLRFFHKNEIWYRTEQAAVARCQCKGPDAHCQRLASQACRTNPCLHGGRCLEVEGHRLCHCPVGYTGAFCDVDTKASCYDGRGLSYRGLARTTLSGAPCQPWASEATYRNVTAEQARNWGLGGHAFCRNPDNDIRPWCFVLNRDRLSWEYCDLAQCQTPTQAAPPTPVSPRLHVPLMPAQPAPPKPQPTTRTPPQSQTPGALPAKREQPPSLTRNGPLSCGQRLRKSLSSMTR
UniProt P00748, sequence (P00748 373-615, chain 2 of 2): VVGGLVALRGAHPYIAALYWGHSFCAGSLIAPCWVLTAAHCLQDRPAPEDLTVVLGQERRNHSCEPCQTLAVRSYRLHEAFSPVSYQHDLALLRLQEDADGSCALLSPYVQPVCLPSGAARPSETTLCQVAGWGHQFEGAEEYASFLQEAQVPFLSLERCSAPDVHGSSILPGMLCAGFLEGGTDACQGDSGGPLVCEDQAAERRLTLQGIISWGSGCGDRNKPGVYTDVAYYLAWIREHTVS

[18] = molecular target: Plasma kallikrein (Homo sapiens) (UniProt P03952)
UniProt P03952, sequence (P03952 391-638): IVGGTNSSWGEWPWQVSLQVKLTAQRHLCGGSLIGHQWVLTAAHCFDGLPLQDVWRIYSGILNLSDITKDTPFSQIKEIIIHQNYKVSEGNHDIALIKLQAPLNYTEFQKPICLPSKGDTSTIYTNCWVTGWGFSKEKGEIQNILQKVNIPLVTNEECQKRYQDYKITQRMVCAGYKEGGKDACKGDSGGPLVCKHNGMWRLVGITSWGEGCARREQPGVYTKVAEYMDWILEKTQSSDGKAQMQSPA

Trypsin (Bos taurus) [19] = molecular target: Trypsin (Bos taurus) (UniProt P00760); remark: listed apart in the source
[20] = molecular target: Chymotrypsin (Bos taurus) (UniProt P00766); remark: listed apart in the source
Plasmin (Homo sapiens) [21] = molecular target: Plasmin (Homo sapiens) (UniProt P00747); remark: listed apart in the source
Trypsin (Bos taurus) [22] = molecular target: Trypsin (Bos taurus) (UniProt P00760); remark: listed apart in the source

UniProt P00760, sequence (P00760 149-246): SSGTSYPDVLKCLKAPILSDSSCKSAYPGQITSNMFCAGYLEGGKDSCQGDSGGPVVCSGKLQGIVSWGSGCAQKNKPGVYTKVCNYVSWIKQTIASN
UniProt P08246, sequence (P08246 30-267): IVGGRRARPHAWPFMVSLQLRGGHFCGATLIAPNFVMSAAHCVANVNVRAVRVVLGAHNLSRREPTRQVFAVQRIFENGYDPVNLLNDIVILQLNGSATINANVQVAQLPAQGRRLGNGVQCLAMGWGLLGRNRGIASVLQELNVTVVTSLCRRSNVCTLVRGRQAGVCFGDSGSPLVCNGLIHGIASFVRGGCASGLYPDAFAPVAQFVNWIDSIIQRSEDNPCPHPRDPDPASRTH

Substance: HWTX-XI (from UniProt P68425)
Kd (Trypsin (Bos taurus) [1]): 0.23 nM

Substance: AvCI (from UniProt L7X735)
Ki [2]: 8.74 nM
Ki [3]: 49.9 nM
Ki [4]: 11.3 nM
Ki [5]: 65.4 nM
Ki [6]: 20.5 nM

Substance: Pr-mulgin 3 (from UniProt E7FL13)
Ki (Trypsin (Bos taurus) [7]): 5 nM
Ki (Plasmin (Homo sapiens) [8]): 100 nM

Substance: Bicolin (from UniProt C0LNR2)
Ki (Trypsin (Bos taurus) [9]): 550 nM
Ki (Thrombin (Homo sapiens)): 26000 nM

Ki [10]: 4.77 nM
Substance: BBPTI-1 (from UniProt A8Y7P1)

Substance: APEKTx1 (from UniProt P86862)
Kd (Trypsin (Bos taurus) [11]): 124 nM

Substance: α-dendrotoxin (from UniProt P00980)
Kd (Kv1.2): < 20 nM
Kd (Kv1.6): < 20 nM
Kd (Kv1.1): < 20 nM

Substance: rBmKTT-3 (from UniProt P0DJ47)
Kd (Trypsin (Bos taurus) [12]): 760 nM

Substance: Pr-mulgin 2 (from UniProt E7FL12)
Ki (Plasmin (Homo sapiens) [13]): 40 nM
Ki [14]: 40 nM
Ki (Trypsin (Bos taurus) [15]): 5 nM

Ki [16]: 3520 nM
Substance: Oh11-1 (from UniProt P82966)

Substance: TSPI (from UniProt B7S4N9)
Ki [17]: 2380 nM
Ki [18]: 0.057 nM

Ki (Trypsin (Bos taurus) [19]): 391 nM
Ki [20]: 84.6 nM
Substance: OH-TCI (recombinant) (from UniProt B6RLX2)

Substance: Textilinin-1 (from UniProt Q90WA1)
Ki (Plasmin (Homo sapiens) [21]): 0.49 nM
Ki (Trypsin (Bos taurus) [22]): 0.76 nM
